The source of these data is US9395368B2, “Methods, agents and peptides for inducing an immune response to matrix metalloproteinase-2 expressing tumors” (New York University, priority 2010, dated 2016).

The subject of the experiment is IL-12p70 production by DCs. Kind of experiment: IL-12p70 production by poly(I:C)-matured DCs (CBA). It is filed as cell-based, human. As for the experimental part: Immature DCs were incubated with MMP-2 (0.5 μg/mL or 5 μg/mL) and poly(I:C)-matured 1 h later. IL-12 levels were measured 16 h later. (A) Results are represented as a percentage of IL-12p70 levels, measured by CBA, produced when DCs were incubated with poly(I:C) only (n=11). (B) For intracellular staining of IL-12p35 and IL-12p40 chains, Brefeldin A was added 4 h after poly(I:C) activation and cells were stained after an additional 12 h incubation. Numbers in the upper right quadrants are the percentages of each population for a representative donor (n=3). (C,D) Immature DCs were incubated with MMP-2 for 1 h (5 μg/mL) before poly(I:C) maturation. Intracellular staining of phosphorylated (Y701) STAT1 (P-STAT1) was performed 3 h later. A representative donor (C) and results for all 3 donors (D) are shown. […] (E) Immature DCs were incubated with MMP-2 and poly(I:C)-matured 1 h later. IFNβ levels were measured by ELISA 16 h later. Results are represented as a percentage of IFNβ levels produced when DCs were incubated with poly(I:C) only (n=9). (F,G) 10^6DCs/lane were treated with 0.1 μg MMP-2 or controls. Poly(I:C) was added 1 h later. IFNAR1 protein expression was detected the next day by Western blot analysis using a rabbit monoclonal antibody. A representative donor (F) and results for all 7 donors (G) are shown. (H) The rhIFNAR1 (5 μg; ≈110 kD) was incubated overnight with 0.3 μg MMP-2 before performing Western blot analysis for IFNAR1. The second band (around 90 kD) and the third band (25 kD) very likely correspond to either a degraded form of the protein still recognized by the antibody or a contaminant present in the commercial protein preparation and non-specifically recognized by the antibody. MMP-2 enzymatic activity was controlled (FIG. 13C-D). […]
Dendritic cell preparation and activation. […] Immature DCs were harvested on day 5 and matured using poly(I:C) at 5 μg/mL/10^6 DCs (Amersham) Secretion of IL-12p70, TNFα, IL-1β, IL-6, IL-8 and IL-10 was assessed on both immature and mature DCs using the Human Inflammatory Cytokine Cytometric Bead Array (BD Pharmingen).

B1: active MMP-2: Purified human MMP-2 (mixture of the proenzyme (50%) and the active form (50%)) purchased from Biomol (protein, listed as Homo sapiens)
chain: MEALMARGALTGPLRALCLLGCLLSHAAAAPSPIIKFPGDVAPKTDKELAVQYLNTFYGCPKESCNLFVLKDTLKKMQKFFGLPQTGDLDQNTIETMRKPRCGNPDVANYNFFPRKPKWDKNQITYRIIGYTPDLDPETVDDAFARAFQVWSDVTPLRFSRIHDGEADIMINFGRWEHGDGYPFDGKDGLLAHAFAPGTGVGGDSHFDDDELWTLGEGQVVRVKYGNADGEYCKFPFLFNGKEYNSCTDTGRSDGFLWCSTTYNFEKDGKYGFCPHEALFTMGGNAEGQPCKFPFRFQGTSYDSCTTEGRTDGYRWCGTTEDYDRDKKYGFCPETAMSTVGGNSEGAPCVFPFTFLGNKYESCTSAGRSDGKMWCATTANYDDDRKWGFCPDQGYSLFLVAAHEFGHAMGLEHSQDPGALMAPIYTYTKNFRLSQDDIKGIQELYGASPDIDLGTGPTPTLGPVTPEICKQDIVFDGIAQIRGEIFFFKDRFIWRTVTPRDKPMGPLLVATFWPELPEKIDAVYEAPQEEKAVFFAGNEYWIYSASTLERGYPKPLTSLGLPPDVQRVDAAFNWSKNKKTYIFAGDKFWRYNEVKKKMDPGFPKLIADAWNAIPDNLDAVVDLQGGGHSYFFKGAYYLKLENQSLKSVKFGSIKSDWLGC
Take B1: the “IL-12p70, mean of differences” value (5 μg/mL MMP-2, n=11 donors) turned out to be 41.7. For the same molecule, the IL-12p70 mean inhibition (5 μg/mL MMP-2, poly(I:C) stimulation, n=11 donors) is 47.8%.
